Data taken from patent EP1173480B1 (Neurochem (International) Limited, dated 2008).
Non-standard residues stand in square brackets, D forms with d. No end group written: not given here.

Target: Aβ(1-40), naturally occurring all-[L] isomer (UniProt P05067 672-711)
Test: cell-based or functional assay

Sequence of Aβ(1-40), naturally occurring all-[L] isomer (P05067 672-711 limits assumed): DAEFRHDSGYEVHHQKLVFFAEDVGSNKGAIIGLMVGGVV

Row | order of potency as inhibitor of Aβ(1-40) fibril formation, thioflavin T fluorescence, peptide tested at 20µM (1 = strongest) [rank] | order of potency as inhibitor of Aβ(1-40) fibril formation, thioflavin T fluorescence, peptide tested at 80µM (1 = strongest) [rank] | Binder
1 | 9 | 10 | [dK][dL][dV][dF][dF] [all-[D] Lys-Leu-Val-Phe-Phe]
2 | 1 | 5 | [dK][dI][dV][dF][dF][dA] [all-[D] Lys-Ile-Val-Phe-Phe-Ala]
3 | 8 | 8 | KLVFFA [all-[L] Lys-Leu-Val-Phe-Phe-Ala]
4 | 4 | 1 | [dK][dF][dV][dF][dF][dA] [all-[D] Lys-Phe-Val-Phe-Phe-Ala]
5 | 2 | 1 | [dK][dK][dL][dV][dF][dF][dA] [all-[D] Lys-Lys-Leu-Val-Phe-Phe-Ala]
6 | 11 | 11 | AFFVLK (not fully specified) [all-[L] Ala-Phe-Phe-Val-Leu-Lys]
7 | 7 | 6 | [dK][dA][dV][dF][dF][dA] [all-[D] Lys-Ala-Val-Phe-Phe-Ala]
8 | 5 | 1 | [dA][dF][dF][dV][dL][dK] [all-[D] Ala-Phe-Phe-Val-Leu-Lys (retro-isomer)]
9 | 6 | 9 | [dK][dL][dV][dF] [all-[D] Lys-Leu-Val-Phe]
10 | 3 | 1 | [dK][dL][dV][dF][dF][dA] [all-[D] Lys-Leu-Val-Phe-Phe-Ala]
11 | 10 | 7 | KKLVFFA [all-[L] Lys-Lys-Leu-Val-Phe-Phe-Ala]
